For assay [1], the system named is Gastric carcinoma cell line NCI-N87. Description: In vivo antitumor effect, NCI-N87 subcutaneous transplant model. The conditions noted are these: 0.4 mg/kg, tail vein, on Day 10, female SCID mice. Here is the method:
(§1) The antitumor effects of the antibody-drug conjugates were evaluated by using animal models in which cells of a human tumor cell line had been transplanted into immunodeficient mice, or cells of a mouse tumor cell line had been transplanted into immunocompetent mice. 4 to 6 Week-old SCID mice (CB17/Icr-Prkdc[scid]/CrlCrlj, Jackson Laboratory Japan, Inc.), NSG mice (NOD.Cg-Prkdcscid Il2rgtm1Wjl/SzJ, Jackson Laboratory Japan, Inc.), or B6J mice (C57BL/6J, Jackson Laboratory Japan, Inc.) were habituated for 3 days or more under SPF conditions before experimental use. The mice were fed with sterilized solid feed and given sterilized tap water. The major and minor diameters of the transplanted tumors were measured twice a week with an electronic digital caliper (Mitutoyo Corporation), and the estimated tumor volume was calculated using the following formula. Estimated tumor volume (mm^3) = 1/2 × major diameter (mm) × [minor diameter (mm)]^2 All antibody-drug conjugates were diluted with ABS and administered into the tail vein at doses shown in each Example. In addition, ABS (vehicle) or control hIgG-PBD prepared in Reference Example 4 was administered as the control group, in a similar manner. 5 to 6 Mice were used per group in the experiment. To analyze the LRRC15 expression in mouse tumor models, immunohistochemical staining of LRRC15 was performed. […]

Assay [2] deals with Fibrosarcoma cell line HT-1080. Description: In vivo antitumor effect, HT-1080 subcutaneous transplant model. The conditions noted are these: 0.4 mg/kg, tail vein, on Day 7, female SCID mice. Here is the method: as §1

B1: H02L01-V1-PBD (conjugate)
heavy: EVQLVESGGGLVQPGGSLRLSCAASGFTFRDYYMAWVRQAPGKGLEWVSSIGFDESRTYYADSVKGRFTISRDDSKNTLYLQMNSLRAEDTAVYYCARHGVSKYSGDNWFAYWGQGTLVTVSSASTKGPSVFPLAPSSKSTSGGTAALGCLVKDYFPEPVTVSWNSGALTSGVHTFPAVLQSSGLYSLSSVVTVPSSSLGTQTYICNVNHKPSNTKVDKKVEPKSCDKTHTCPPCPAPEAAGGPSVFLFPPKPKDTLMISRTPEVTCVVVDVSHEDPEVKFNWYVDGVEVHNAKTKPREEQYNSTYRVVSVLTVLHQDWLNGKEYKCKVSNKALAAPIEKTISKAKGQPREPQVYTLPPSREEMTKNQVSLTCLVKGFYPSDIAVEWESNGQPENNYKTTPPVLDSDGSFFLYSKLTVDKSRWQQGNVFSCSVMHEALHNHYTQKSLSLSPGK
light: DIQMTQSPSSLSASVGDRVTITCKSSQGLLYSGDQKNYLAWYQQKPGKAPKLLIYWASTRQSGVPSRFSGSGSGTDFTLTISSLQPEDFATYYCQQYYDPPYTFGQGTKVEIKRTVAAPSVFIFPPSDEQLKSGTASVVCLLNNFYPREAKVQWKVDNALQSGNSQESVTEQDSKDSTYSLSSTLTLSKADYEKHKVYACEVTHQGLSSPVTKSFNRGEC
On to B1, for which the “antitumor effect (estimated tumor volume)” value in assay [1] was “antitumor activity higher than that of the vehicle”; in assay [2] it was “antitumor activity higher than that of the vehicle and control hIgG-PBD”.

Source of the values: patent publication EP4703474A1, “ANTI-LRRC15 ANTIBODY” (priority 2023, dated 2024).
